Results: publication PMC4866497
Where two headings read alike, the source gives them in different places.

Tests used:
[1] = tested on: MetMab full heavy chain with T350V L351Y F405A Y407V, with MetMab light chain; assay: SEC
[2] = tested on: MetMab full heavy chain with T350V L351Y F405A Y407V, with MetMab light chain; assay: SEC; remark: listed apart in the source
[3] = tested on: MetMab full heavy chain with E345R Q347R T366V K409V, with MetMab light chain; assay: SEC
[4] = tested on: MetMab full heavy chain with E345R Q347R T366V K409V, with MetMab light chain; assay: SEC; remark: listed apart in the source
IgG1 Fc with T366V K409V = assay: SEC
[5] = tested on: EGFR domain 3 - Fc with T350V T366L K392L T394W; assay: FRET or BRET
[6] = tested on: MetMab full heavy chain with K360D D399M Y407A, with MetMab light chain; assay: SEC
[7] = tested on: MetMab full heavy chain with K360D D399M Y407A, with MetMab light chain; assay: SEC; remark: listed apart in the source
[8] = tested on: EGFR domain 3 - Fc with D399M Y407A; assay: FRET or BRET
[9] = tested on: MetMab full heavy chain with T366V K409V, with MetMab light chain; assay: SEC
[10] = tested on: MetMab full heavy chain with T366V K409V, with MetMab light chain; assay: SEC; remark: listed apart in the source
[11] = tested on: MetMab full heavy chain with D399M Y407A, with MetMab light chain; assay: SEC
[12] = tested on: MetMab full heavy chain with D399M Y407A, with MetMab light chain; assay: SEC; remark: listed apart in the source
[13] = tested on: MetMab full heavy chain with T350V T366L K392L T394W, with MetMab light chain; assay: SEC
[14] = tested on: MetMab full heavy chain with T350V T366L K392L T394W, with MetMab light chain; assay: SEC; remark: listed apart in the source

Question: For IgG1 Fc with T350V T366L K392L T394W, which % AB heterodimer [1] is on record?
Answer: The % AB heterodimer was 25.6%.

Question: And the % AB heterodimer [2]?
Answer: The % AB heterodimer was 87.6%.

Question: How did the % AB heterodimer [3] turn out when IgG1 Fc with K360D D399M Y407A was run?
Answer: Its % AB heterodimer is 32.5%.

Question: And the % AB heterodimer [4]?
Answer: Its % AB heterodimer is 93.3%.

Question: How did the % BB homodimer (co-expressed with m8) (IgG1 Fc with T366V K409V) turn out when “IgG1 Fc with T366V K409V (domain or fragment)” was run?
Answer: Its % BB homodimer (co-expressed with m8) is 8.2%.

Question: With “VEGFR1 domain 3 - Fc with T350V L351Y F405A Y407V” as the substance, how does the % AB heterodimer [5] read?
Answer: Its % AB heterodimer is 94.8%.

Question: With IgG1 Fc with E345R Q347R T366V K409V as the substance, how does the % AB heterodimer [6] read?
Answer: The % AB heterodimer was 46.2%.

Question: What about the % AB heterodimer [7] of the same substance?
Answer: Its % AB heterodimer is 92.9%.

Question: With VEGFR1 domain 3 - Fc with T366V K409V as the substance, how does the % AB heterodimer [8] read?
Answer: The % AB heterodimer was 89%.

Question: With IgG1 Fc with D399M Y407A as the substance, how does the % AB heterodimer [9] read?
Answer: The % AB heterodimer was 26.9%.

Question: What about the % AB heterodimer [10] of the same substance?
Answer: Its % AB heterodimer is 88.6%.

Question: For IgG1 Fc with T366V K409V, which % AB heterodimer [11] is on record?
Answer: Its % AB heterodimer is 42.3%.

Question: And the % AB heterodimer [12]?
Answer: Its % AB heterodimer is 89.9%.

Question: For IgG1 Fc with T350V L351Y F405A Y407V, which % AB heterodimer [13] is on record?
Answer: The % AB heterodimer was 18.3%.

Question: And the % AB heterodimer [14]?
Answer: The % AB heterodimer was 94.3%.
